# Experiment: yeast display, Sf9 membrane polyspecificity reagent, FACS + sequencing; frameworks hold sequencing errors
# Summary of the method: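 In a synthetic yeast display library (Saccharomyces cerevisiae BJ5465), nanobody expression was induced with galactose for 36–48 hours. FACS gates were set low and high (top ~1%) using anti-HA fluorescence for expression and streptavidin fluorescence for binding of the Sf9 membrane reagent. Each polyreactivity label is drawn from the gate of origin.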
row,Sequence,polyreactivity (PSR sort gate)
1,QVQLVESGGGLVQAGGSLRLSCAASGIFDYYAMGWYRQAPGKERELVAAINSSGGSTYYADSVKGRFTISRDNAKNTVYLQMNSLKPEDTAVYYCAAGRYAYLFNYWGQGTQVTVSS,high polyreactivity
2,QVQLVESGGGLVQAGGSLRLSCAASGIFFIYSMGWYRQAPGKERELVADIDSGGPTYYADSVKGRFTISRDNAKNTVYLQMNSLKPEDTAVYYCAVDYSNVDLYSLLFYESDYWGQGTQVTVSS,low polyreactivity
3,QVQLVESGGGLVQAGGSLRLSCAASGIFFLYMGWYRQAPGKERELVAAISDSGGTTYYADSVKGRFTISRDNAKNTVYLQMNSLKPEDTAVYYCAAEIENLNWFYWDYLEYDYWGQGTQVTVSS,low polyreactivity
4,QVQLVESGGGLVQAGGSLRLSCAASGIFGWNAMGWYRQAPGKEREFVAGITYSGTRTYYADSVKGRFTISRDNAKNTVYLQMNSLKPEDPAVYYCAATTGHRNYRSYYWGQGTQVTVSS,high polyreactivity
5,QVQLVESGGGLVQAGGSLRLSCAASGIFGYNARGWYRQAPGKERELVAAITSSGTSTYYADSVKGRFTISRDNAKNTVYLQMNSLKPEDTAVYYCAALHSGTWTGYGYWGQGTQVTVSS,low polyreactivity
6,QVQLVESGGGLVQAGGSLRLSCAASGIFRRYAMGWYRQAPGKERELVATITSGGSTNYADSVKGRFTISRDNAKNTVYLQMNSLKPEDTAVYYCNALYGARRYTRWYTGMDYWGQGTQVTVSS,high polyreactivity
7,QVQLVESGGGLVQAGGSLRLSCAASGIFTRYAMGWYRQAPGKERELVAAISRGGGSTYYADSVKGLFTISRDNAKNTCYLQMNSLKPEDTAVYYCNTYKRPRSPGPKFYYWGEGTQVTVSS,high polyreactivity
8,QVQLVESGGGLVQAGGSLRLSCAASGIFVDNAMGWYRQAPGKERELVAAITSSTDSTYYADSVKGRFAISRDNAKNTVYLQMNSLKPEDTAVDYCAVARPGGFYFLVHYGYGYWGQGTQVTVSS,low polyreactivity
9,QVQLVESGGGLVQAGGSLRLSCAASGIICDYNAMGWYRQAPGKERELVAAITSTDNTNYADSVKGRFTISRDNAKNTVYLQMNSLKPEDTAVYSCNTDYWLSVVYAMDYWGQGTQVTVSS,low polyreactivity
10,QVQLVESGGGLVQAGGSLRLSCAASGIIFANYTMGWYRKAPGKERELVAAISWSGDSTYYADSVKGRFTISRDNAKNTVYLQMNSLKPEDTAVYYCATVNIGYRVWMNYWGQGTQVTVSS,low polyreactivity
11,QVQLVESGGGLVQAGGSLRLSCAASGIIFAQYTMGWYRQAPGKERELVAAINRNGGSTYYADSVKGRFTISRDNAKNSVYLQMNSLKPEDTAVYYCNADALGFRYDYWGQGTQVTVSS,low polyreactivity
12,QVQLVESGGGLVQAGGSLRLSCAASGIIFARYAMGWYRQAPGKERELVASINWTGGNTYADSVKGRFTISRDNAKNSVYLQMNSLNPEDTAVYYCARDFSPGSSDPNASISFDHWGQGTQVTVSS,low polyreactivity
13,QVQLVESGGGLVQAGGSLRLSCAASGIIFAWNVRGWYRQAPGKERELVAAITQSGGGTYYADSVKGRFTISRDNAKNTVYLLMYSLKPEDTGFYYCAAVGYQFYRYVWVDEFDSWGQGTQVTVSS,low polyreactivity
14,QVQLVESGGGLVQAGGSLRLSCAASGIIFAWYVMGWYRQAPGKERELVAAITQSGGSTFYADSVKGRFTISRDNAKNTVYLQMNSLKPEDTAVYYCNTEDFFNVPEMDSWGQGTQVTVSS,low polyreactivity
15,QVQLVESGGGLVQAGGSLRLSCAASGIIFAYAMGWYRQAPGKERELVAAISGRDGSTYYADSVKGRFTISRDNAKNTVYLQMNSLKPEDTAVYYCNAVRGSYSWQMYYWGQGTQVTVSS,low polyreactivity
16,QVQLVESGGGLVQAGGSLRLSCAASGIIFAYNVIGWSRPAPGKERELVAAIRWGGGSTYADSVKGRFTISRDNAKNTVYLQMNSLKPEDTAVYYCATRYRSYYAKYGYNYWGQGTQVTVSS,high polyreactivity
17,QVQLVESGGGLVQAGGSLRLSCAASGIIFAYYAMGWYRQAPGKERELVAAITSGGSTHYADSVKGRFTISRDNAKNTVYLKMNSLKPEDTAVYYCAADVSYYASLFDYGGQGTQVTVSS,low polyreactivity
18,QVQLVESGGGLVQAGGSLRLSCAASGIIFAYYAMGWYRQAPGKERELVGTNYADSVKGRFTISRDNAKNTVYLQMNSLKPEDTAVYYCAADFLYYSSGGKMDYWGQGTQVTVSS,low polyreactivity
19,QVQLVESGGGLVQAGGSLRLSCAASGIIFCRYAMGWYRQAPGKERELVATITWRGGSTYYADSVKGRFTISRDNAKNTVYLQMNSLKPEDTAVYYCAADTRQSRSFRARDYWGQGTQVTVSS,low polyreactivity
20,QVQLVESGGGLVQAGGSLRLSCAASGIIFDDYALGWYRPAPGKVRELVAAINSNGGTTYYADSVKGRFTISRDNAKNTVYLQMNSLKPEDTAVYYCAARPYRIGRYGYDYDYWGQGTQVTVSS,high polyreactivity
21,QVQLVESGGGLVQAGGSLRLSCAASGIIFDEYAMGWYRQAPGKEMELVAGITIGGSTNYADSVKGRLTISRDNAKNTVYLQMNSLKPEDTAVYYCDYLGQGTQVTVSS,low polyreactivity
22,QVQLVESGGGLVQAGGSLRLSCAASGIIFDFYAMGWYRQAPGKEWELVAAITVSGGSTYYADSVKGRFTISRDNAKNTVYLQMNSLKPEDTAVYYCAAVGDWYVSYYEMDYWGQGTQVTVSS,low polyreactivity

row,Sequence,polyreactivity (PSR sort gate)
1,QVQLVESGGGLVQAGGSLRLSCAASGIIFDGNAMGWYRQAPGKERELVAAISSGGSTNYADSVKGRFTISRDNAKNTVYLQMNSLKPEDTAVYYCAARYTGKYEREYIYWGQGTQVTVSS,high polyreactivity
2,QVQLVESGGGLVQAGGSLRLSCAASGIIFDINAMGWYRQAPGKERELVAAITTSVDSTYYADSVKGRFTISRDNAKNTVYLQMNSLKPEDTAVYYCAAGPGDSGDDYWGQGTQVTVSS,low polyreactivity
3,QVQLVESGGGLVQAGGSLRLSCAASGIIFDRYAMGWYRQAPGKERELVAAITYGGGSTYYADSVKGRFTISRDNAKNTVYLQMNSLKPEDTAVYYCAAVSTWFYQYYYWGQGTQVTVSS,high polyreactivity
4,QVQLVESGGGLVQAGGSLRLSCAASGIIFDTNAMGWYRQAPGKERELVATITQRGGTTYYADSVKGRFTISRDNAKNTVYLQMNSLKPEDTAVYYCNAGPVRLPYDSWGQGTQVTVSS,low polyreactivity
5,QVQLVESGGGLVQAGGSLRLSCAASGIIFDWYAMGWYRQAPGKERELVAAISDSGDTTYYADSVKGRFTISRDNAKNTVYLQMNSLKPEDTAVYYCNARVIGIYGYWGQGTQVTVSS,high polyreactivity
6,QVQLVESGGGLVQAGGSLRLSCAASGIIFDYYAMGWYRPAPGKERELVAAINSGSGSTYYADSVKGRFTISRDNAKNTVYLQMNSLKPEDTAVYYCAADGLSATLTWYSYDYWGQGTQVTVSS,low polyreactivity
7,QVQLVESGGGLVQAGGSLRLSCAASGIIFEGYAMGWYRQAPGKERELVATITSGGITYYADSVKGRFTISRDNAKNTVYLQMNSLKPEDTAVYYCAADNEDIGSEDSDYGYDYWGQGTQVTVSS,low polyreactivity
8,QVQLVESGGGLVQAGGSLRLSCAASGIIFERNAMGWYRQAPGKERELVAAITTSGDSTYYADSVKGRFTISRDNAKNTVYLQMNSLKPEDTAVYYCAVEGVIWSFWPYEYWGQGTQVTVSS,high polyreactivity
9,QVQLVESGGGLVQAGGSLRLSCAASGIIFEYYAMGWYRQAPGKERELVASITSSDGSTYYADSVKGRFTISRDNAKNTVYLQMNSLKPEDTAVYYCAAAGDYVVPISSTAGFGGDYWGQGTQVTVSS,low polyreactivity
10,QVQLVESGGGLVQAGGSLRLSCAASGIIFFDYAMGWYRQAPGKERELVAAISSGGGNTYYADSVKGRFTISRDNAKNTVYLQMNSLNPEDTAVDYCAAEPYIYGEQGAYDYWGQGTQVTVSS,low polyreactivity
11,QVQLVESGGGLVQAGGSLRLSCAASGIIFFPYAMGWYRQAPGKEREFVAAITSRGGSTYYADSVKGRFTISRDNAKNTVYLQMNSLKPEDTAVYYCAADHLGRARGPWRYNYWGQGTQVTVSS,low polyreactivity
12,QVQLVESGGGLVQAGGSLRLSCAASGIIFFPYPMGWYRQAPGKERELVASINISDSSTYYADSVKGRFTISRDTAKNTVDLQMNSLKPEDTAVYYCAADNRGDSWYWHGYWGQGTQVSVSS,low polyreactivity
13,QVQLVESGGGLVQAGGSLRLSCAASGIIFFWNAMGWYRQAPGKERELVAAISSGGSTFADSVKGRFTISRDNAKNTVYLQMNSLKPEDTAVYYCAARFYHGYRPYIAIYGYGYWGQGTQVTVSS,low polyreactivity
14,QVQLVESGGGLVQAGGSLRLSCAASGIIFGAYAMGLYRQAPGQERVFVAAISRSGSRTYYADSVKGRFTISRDTAKNTVYLQMNSLKPEDTAVYYCAAESPVLYYWGQGTQVTVSS,high polyreactivity
15,QVQLVESGGGLVQAGGSLRLSCAASGIIFGGNVMGWYRQAPGKERELVAAITWSGGTTYYADSVKGRFTISRDNAKNTVFLQMNSLKPEDTAVYYCAADRVYLDYVAGTYDYWGQGTQVTVSS,low polyreactivity
16,QVQLVESGGGLVQAGGSLRLSCAASGIIFGGYAMGWYGQAPGKERELVASITWGGGSTYYADSVKGRFTISRDNAKNTVYLQMNSLKPEDTAVYYCNKRGYPGSDWGQGTQVTVSS,low polyreactivity
17,QVQLVESGGGLVQAGGSLRLSCAASGIIFGGYAMGWYRQAPGKERELVAAITRSGGSTYYADSVKGRFTISRDNAKNTVYLQMNSLKPEDTAVYYCAAVPYRKHSYPFRLNYWGQGTQVTVSS,high polyreactivity
18,QVQLVESGGGLVQAGGSLRLSCAASGIIFGGYDMGWYRQATGKERELVAAISWSGGSTYYADSVKGRFTISRDTAKNTVYLQMNSLKPEDTAVYYCAAAYYAPTRDYYYWGQGTQVTVSS,low polyreactivity
19,QVQLVESGGGLVQAGGSLRLSCAASGIIFGPNAMGWYRQAPGKERELVAGIDWSTDSTYYADSVKGRFTLSRDNAKNTVYLQMNSLKPEDTAVYYCAVAENKRFGSVGYYYWGQGTQVTVSS,low polyreactivity
20,QVQLVESGGGLVQAGGSLRLSCAASGIIFGQNALGWYRQAPGKEREVVAAITISGGSTYYSDSVKGRFTISRDNAKNTVYLQMNSLKPEDTAVYYCAAEWYYVYIAPYDYWGQGTQVTVSS,low polyreactivity
21,QVQLVESGGGLVQAGGSLRLSCAASGIIFGRYAMGWYRQATGTVRELVAASTRSGGRTYYADTVKGRFTISRDYAKNTVFVQMNSLKPEDTAVYYCSADASGHSYDYWGQGTQVTVSS,high polyreactivity

# — the nanobody polyreactivity screen of Harvey et al. (2022)
